Measurements from patent US20240076392A1, “ANTI-CD123 BINDING MOLECULES AND USES THEREOF” (IGM Biosciences, Inc., priority 2021, published 2024).

T1: recombinant human CD123 protein (CD123)-His (Homo sapiens, UniProt P26951)
T1 construct: purchased Acrobio (Acro Biosystems) ILA-H52H6
T1 sequence (P26951 19-378): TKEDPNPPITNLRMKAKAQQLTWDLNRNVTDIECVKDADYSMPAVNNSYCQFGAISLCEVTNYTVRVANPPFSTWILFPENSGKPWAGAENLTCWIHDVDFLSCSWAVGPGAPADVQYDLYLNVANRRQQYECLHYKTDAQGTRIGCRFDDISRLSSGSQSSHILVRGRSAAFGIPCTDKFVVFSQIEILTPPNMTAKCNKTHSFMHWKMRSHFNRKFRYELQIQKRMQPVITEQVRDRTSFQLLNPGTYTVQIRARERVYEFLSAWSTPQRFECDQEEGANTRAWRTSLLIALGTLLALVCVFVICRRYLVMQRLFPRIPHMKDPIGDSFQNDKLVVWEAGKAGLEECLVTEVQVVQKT

T2: human CD123 on CHO cells (Homo sapiens, UniProt P26951)
T2 construct: expressed in transfected cells; host or cells: CHO cells
T2 sequence (P26951 19-378): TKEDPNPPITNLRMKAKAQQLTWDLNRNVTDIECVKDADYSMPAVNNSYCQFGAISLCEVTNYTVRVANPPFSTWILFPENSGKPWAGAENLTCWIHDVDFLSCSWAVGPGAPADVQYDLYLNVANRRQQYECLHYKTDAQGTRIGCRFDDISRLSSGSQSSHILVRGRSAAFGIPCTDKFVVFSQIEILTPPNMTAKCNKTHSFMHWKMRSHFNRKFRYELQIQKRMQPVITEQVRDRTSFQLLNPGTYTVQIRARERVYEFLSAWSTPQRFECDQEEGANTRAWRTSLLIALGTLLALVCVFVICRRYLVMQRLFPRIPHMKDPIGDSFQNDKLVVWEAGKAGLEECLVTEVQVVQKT


Tests used:
[1] = target: T1, recombinant human CD123 protein (CD123)-His; assay: Biolayer interferometry (Octet) affinity measurement of IgG antibodies; type: binding; conditions: IgG format
Description: The binding affinities of parental 32716 IgG and humanized variants with recombinant human CD123 protein (CD123)-His Acrobio #ILA-H52H6) were determined by BLI on an Octet-384 (Sartorius/Fortebio, NY, USA) using Anti-penta His biosensors (Sartorius). PBST (1×PBS+1% BSA+0.05% Tween-20) buffer was used as Antibody/CD123 dilution and sensor hydration buffer. The experiment followed a five-step sequential assay at 24° C. First, biosensors were hydrated for 10 minutes. Samples and buffer were applied in 384-well plate. After initial baseline for 60 s, sensors were loaded with 7 nM hu IL-3R alpha (CD123)-His Acrobio #ILA-H52H6. The biosensors were dipped into PBST for 20 s to reach baseline, then incubated for 420 s with 2-fold serial diluted anti-CD123 antibodies starting at 10 nM for association, followed by 900 s in PBST for dissociation. Results were analyzed by ForteBio Data Analysis software 9.0 using 1:1 global fit model.

human CD123 on CHO cells = target: T2, human CD123 on CHO cells; assay: Flow cytometry binding of IgG antibodies to CD123 expressing CHO cells; conditions: 4-parameter logistic model; for Max binding intensity (MFI): flow cytometry
Description: To assess the ability of IgG antibodies to bind CD123 on CHO cells expressing the human CD123, a binding assay was performed. CHO cells expressing human CD123 were detached from flask using trypsin. Cells (1×105) were pipetted into wells in a round bottom 96 well plate, washed with FACS Stain Buffer (BD Pharmigen Catalog #554656) and pre-incubated with Fc Block (BD, #564220) for 10 minutes at room temperature followed by incubation at 4° C. with serial dilutions of 32716 or h32716 IgG antibodies for 30 minutes. Cells were washed twice and stained with a mouse anti human kappa antibody conjugated with Alexa647 (Southern Biotech, clone SB81a). Cells were analyzed by flow cytometry. Mean fluorescence intensity (MFI) values were analyzed with GraphPad Prism using a 4-parameter logistic model. All humanized IgG antibodies of 32716 anti-CD123 bound with similar affinities and intensities.

Molecule | affinity compared to the original murine IgG antibody [1] | HillSlope (human CD123 on CHO cells) | Max binding intensity (MFI) (human CD123 on CHO cells)
32716 IgG: parental (mouse) anti-CD123 antibody 32716 VH/VL (SEQ ID NO: 74/75) cloned into human IgG format (antibody, V domains shown, human IgG constant regions) VH: QIQLVQSGPELKKPGETVKISCKASGYIFTNYGMNWVKQAPGKSFKWMGWINTYTGESTYSADFKGRFAFSLETSASTAYLHINDLKNEDTATYFCARSGGYDPMDYWGQGTSVTVSS VL: DIVLTQSPASLAVSLGQRATISCRASESVDNYGNTFMHWYQQKPGQPPKLLIYRASNLESGIPARFSGSGSRTDFTLTINPVEADDVATYYCQQSNEDPPTFGAGTKLELK |  | 2.2 | 910000
h32716-1-1 IgG: humanized 32716 anti-CD123 IgG, VH SEQ ID NO: 76, VL SEQ ID NO: 79 (antibody, V domains shown) VH: QVQLVQSGAEVKKPGSSVKVSCKASGYIFTNYGMNWVRQAPGQGLEWMGWINTYTGESTYSADFKGRVTITADESTSTAYMELSSLRSEDTAVYYCARSGGYDPMDYWGQGTLVTVSS VL: DIVMTQSPDSLAVSLGERATINCRASESVDNYGNTFMHWYQQKPGQPPKLLIYRASNLESGVPDRFSGSGSGTDFTLTISSLQAEDVAVYYCQQSNEDPPTFGQGTRLEIK |  | 2.0 | 950000
h32716-2-1 IgG: humanized 32716 anti-CD123 IgG, VH SEQ ID NO: 77, VL SEQ ID NO: 79 (antibody, V domains shown) VH: QVQLVQSGAEVKKPGSSVKVSCKASGYIFTNYGMNWVKQAPGQGLEWMGWINTYTGESTYSADFKGRFTFTLDESTSTAYMELSSLRSEDTAVYYCARSGGYDPMDYWGQGTLVTVSS VL: DIVMTQSPDSLAVSLGERATINCRASESVDNYGNTFMHWYQQKPGQPPKLLIYRASNLESGVPDRFSGSGSGTDFTLTISSLQAEDVAVYYCQQSNEDPPTFGQGTRLEIK |  | 1.7 | 930000

Results, then the molecule that gave them:

affinity compared to the original murine IgG antibody [1] | HillSlope (human CD123 on CHO cells) | Max binding intensity (MFI) (human CD123 on CHO cells) | Molecule
slightly better affinity | 1.9 | 940000 | h32716-3-1 IgG: humanized 32716 anti-CD123 IgG, VH SEQ ID NO: 78, VL SEQ ID NO: 79 (antibody, V domains shown) VH: QVQLVQSGAEVKKPGSSVKVSCKASGYIFTNYGMNWVKQAPGQGFKWMGWINTYTGESTYSADFKGRFTFTLDESTSTAYMELSSLRSEDTAVYYCARSGGYDPMDYWGQGTLVTVSS VL: DIVMTQSPDSLAVSLGERATINCRASESVDNYGNTFMHWYQQKPGQPPKLLIYRASNLESGVPDRFSGSGSGTDFTLTISSLQAEDVAVYYCQQSNEDPPTFGQGTRLEIK
 | 2.4 | 980000 | h32716-4-2 IgG: humanized 32716 anti-CD123 IgG, VH SEQ ID NO: 80, VL SEQ ID NO: 83 (antibody, V domains shown) VH: QVQLVQSGPELKKPGASVKVSCKASGYIFTNYGMNWVRQAPGQGLEWMGWINTYTGESTYSADFKGRFVFSLDTSVSTAYLQISSLKAEDTAVYYCARSGGYDPMDYWGQGTLVTVSS VL: DIQMTQSPSSLSASVGDRVTITCRASESVDNYGNTFMHWYQQKPGKAPKLLIYRASNLESGVPSRFSGSGSGTDFTFTISSLQPEDIATYYCQQSNEDPPTFGQGTKVEIK
 | 2.2 | 1100000 | h32716-5-2 IgG: humanized 32716 anti-CD123 IgG, VH SEQ ID NO: 81, VL SEQ ID NO: 83 (antibody, V domains shown) VH: QVQLVQSGPELKKPGASVKVSCKASGYIFTNYGMNWVKQAPGQGLEWMGWINTYTGESTYSADFKGRFVFSLDTSVSTAYLQISSLKAEDTAVYYCARSGGYDPMDYWGQGTLVTVSS VL: DIQMTQSPSSLSASVGDRVTITCRASESVDNYGNTFMHWYQQKPGKAPKLLIYRASNLESGVPSRFSGSGSGTDFTFTISSLQPEDIATYYCQQSNEDPPTFGQGTKVEIK
 | 1.9 | 1000000 | h32716-6-2 IgG: humanized 32716 anti-CD123 IgG, VH SEQ ID NO: 82, VL SEQ ID NO: 83 (antibody, V domains shown) VH: QVQLVQSGPELKKPGASVKVSCKASGYIFTNYGMNWVKQAPGQGFKWMGWINTYTGESTYSADFKGRFVFSLDTSVSTAYLQISSLKAEDTAVYYCARSGGYDPMDYWGQGTLVTVSS VL: DIQMTQSPSSLSASVGDRVTITCRASESVDNYGNTFMHWYQQKPGKAPKLLIYRASNLESGVPSRFSGSGSGTDFTFTISSLQPEDIATYYCQQSNEDPPTFGQGTKVEIK
